Common to all, as to experiment: SPR
On the technique in general: In SPR one partner is held on a chip, and binding of the other changes the refractive index at the surface.

For one assay, the target named is 7D11.
The target of assay [1] is T1, recombinant MPXV [change] protein (ectodomain, His-tagged) (mpox virus (MPXV), isolate …).
In assay [2] the target is T1, recombinant MPXV [change] protein …. The source holds these as a separate data set.

The source of these data is publication PMC11937253 (2025).

Where two headings read alike, the source gives them in different places.

B1: recombinant MPXV [change] protein (ectodomain, His-tagged) (domain or fragment)
chain: MGAAASIQTTVNTLSERISSKLEQEANASAQTKCDIEIGNFYIRQNHGCNITVKNMCSADADAQLDAVLSAATETYSGLTPEQKAYVPAMFTAALNIQTSVNTVVRDFENYVKQTCNSSAVVDNKLKIQNVIIDECYGAPGSPTNLEFINTGSSKGNCAIKALMQLTTKATTQIAPRQVAG
One may read the Kd as the concentration at which binding is half-saturated. In the assay with 7D11, B1 gave a Kd of 0.0198 nM.

B2: nanobody M1R-01 (monovalent) (VHH)
VHH: QVQLVESGGGLVQAGGSLRLSCAASGFIFHNFDMGWYRQAPGKEREFVAAISDNGRSTYYADSVKGRFTISRDNAKNTVYLQMNSLKPEDTAVYYCAVAWLSIPDLAEWYDYWGQGTQVTVSS
B2: the Kd stood at 40 nM in assay [1] and 40.4 nM in assay [2].
